Reference: US20030078191A1 (published 2003)

Tests used:
[1] = molecular target: Gal4ad-ZipA(185-302) fusion (pGAD424 fusion) (Escherichia coli); assay: cell-based or functional assay
[2] = molecular target: Gal4ad-ZipA(62-328) fusion (pGAD424 fusion) (Escherichia coli); assay: cell-based or functional assay
[3] = molecular target: Gal4ad-ZipA(35-185) fusion (pGAD424 fusion) (Escherichia coli); assay: cell-based or functional assay
[4] = molecular target: Gal4ad-ZipA(185-328) fusion (pGAD424 fusion) (Escherichia coli, UniProt P77173 185-328); assay: cell-based or functional assay
[5] = molecular target: Gal4ad-ZipA(35-284) fusion (pGAD424 fusion) (Escherichia coli); assay: cell-based or functional assay
[6] = molecular target: T1, Gal4 activation domain alone (pGAD424 vector, no fusion) (UniProt P04386 768-881); assay: cell-based or functional assay
T1 sequence (looked up): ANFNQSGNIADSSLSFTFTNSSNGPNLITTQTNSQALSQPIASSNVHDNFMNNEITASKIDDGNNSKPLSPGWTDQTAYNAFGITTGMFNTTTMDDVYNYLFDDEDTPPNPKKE

[7] = molecular target: T2, Gal4ad-FtsA fusion (UniProt P0ABH0 1-420); assay: yeast two-hybrid, Gal4 system
T2 sequence: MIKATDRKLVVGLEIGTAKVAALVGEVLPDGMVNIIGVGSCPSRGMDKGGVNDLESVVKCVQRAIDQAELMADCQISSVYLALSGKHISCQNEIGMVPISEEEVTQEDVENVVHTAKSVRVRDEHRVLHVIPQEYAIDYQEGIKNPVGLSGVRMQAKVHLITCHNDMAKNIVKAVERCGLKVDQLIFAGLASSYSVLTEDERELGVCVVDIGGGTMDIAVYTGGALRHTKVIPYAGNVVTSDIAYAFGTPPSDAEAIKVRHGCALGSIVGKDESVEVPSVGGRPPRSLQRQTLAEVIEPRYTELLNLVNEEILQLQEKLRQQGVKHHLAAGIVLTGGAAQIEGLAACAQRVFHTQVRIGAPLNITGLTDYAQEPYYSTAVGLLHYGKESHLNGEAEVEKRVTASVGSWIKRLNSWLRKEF

[8] = molecular target: T3, B42-FtsZ fusion (pB42-FtsZ, SHp256) (Escherichia coli, UniProt P0A9A6 1-383); assay: yeast two-hybrid (LexA fusion x B42 fusion), growth on plates without histidine
T3 construct: Yeast two-hybrid prey; entire FtsZ gene cloned into pB42
T3 sequence: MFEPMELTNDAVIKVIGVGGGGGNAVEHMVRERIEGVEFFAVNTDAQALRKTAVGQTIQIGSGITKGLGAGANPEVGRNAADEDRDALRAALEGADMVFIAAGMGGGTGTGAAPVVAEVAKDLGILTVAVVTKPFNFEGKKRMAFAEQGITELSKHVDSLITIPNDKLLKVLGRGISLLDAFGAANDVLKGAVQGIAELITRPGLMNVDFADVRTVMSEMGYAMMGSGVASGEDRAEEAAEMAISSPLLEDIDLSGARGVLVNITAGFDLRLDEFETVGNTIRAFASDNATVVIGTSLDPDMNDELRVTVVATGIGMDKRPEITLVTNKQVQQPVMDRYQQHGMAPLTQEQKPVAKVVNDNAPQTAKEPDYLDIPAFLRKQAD

[9] = molecular target: T3, B42-FtsZ fusion (pB42-FtsZ, SHp256); assay: yeast two-hybrid (LexA/B42), LEU2 and lacZ reporters, haploids and diploids

B1: Gal4bd-OrfE fusion (pAS2-1 fusion of kil) (other)
chain: MKLLSSIEQACDICRLKKLKCSKEKPKCAKCLKNNWECRYSPKTKRSPLTRAHLTEVESRLERLEQLFLLIFPREDLDMILKMDSLQDIKALLTGLFVQDNVNKDAVTDRLASVETDMPLTLRQHRISATSSSEESSNKGQRQLTVSMIAHHFGTDEIPRQCVTPGDYVLHEGRTYIASANNIKKRKLYIRNLTTKTFITDRMIKVFLGRDGLPVKAESW
notes: also called Gal4bd-Kil
- beta-galactosidase (lacZ reporter) activity, MUG fluorescence, yeast two-hybrid [1]: 721 units
- beta-galactosidase (lacZ reporter) activity, MUG fluorescence, yeast two-hybrid [2]: 8530 units
- beta-galactosidase (lacZ reporter) activity, MUG fluorescence, yeast two-hybrid [3]: 1140 units
- beta-galactosidase (lacZ reporter) activity, MUG fluorescence, yeast two-hybrid [4]: 1910 units
- beta-galactosidase (lacZ reporter) activity, MUG fluorescence, yeast two-hybrid [5]: 7580 units
- beta-galactosidase (lacZ reporter) activity, MUG fluorescence, yeast two-hybrid [6]: 1230 units
- binding result [7]: no binding

B2: LexA-OrfE fusion (kil as a fusion to the LexA DNA-binding protein) (other)
chain: MKALTARQQEVFDLIRDHISQTGMPPTRAEIAQRLGFRSPNAAEEHLKALARKGVIEIVSGASRGIRLLQEEEEGLPLVGRVAAGEPLLAQQHIEGHYQVDPSLFKPNADFLLRVSGMSMKDIGIMDGDLLAVHKTQDVRNGQVVVARIDDEVTVKRLKKQGNKVELLPENSEFKPIVVDLRQQSFTIEGLAVGVIRNGDWLMIAHHFGTDEIPRQCVTPGDYVLHEGRTYIASANNIKKRKLYIRNLTTKTFITDRMIKVFLGRDGLPVKAESW
- binding result [8]: no binding

B3: Gal4bd-FtsZ(311-383) fusion (pAS2-1-FtsZ(311-383), SHp102) (other)
chain: MKLLSSIEQACDICRLKKLKCSKEKPKCAKCLKNNWECRYSPKTKRSPLTRAHLTEVESRLERLEQLFLLIFPREDLDMILKMDSLQDIKALLTGLFVQDNVNKDAVTDRLASVETDMPLTLRQHRISATSSSEESSNKGQRQLTVSVATGIGMDKRPEITLVTNKQVQQPVMDRYQQHGMAPLTQEQKPVAKVVNDNAPQTAKEPDYLDIPAFLRKQAD
- beta-galactosidase (lacZ reporter) activity, MUG fluorescence, yeast two-hybrid [1]: 828 units
- beta-galactosidase (lacZ reporter) activity, MUG fluorescence, yeast two-hybrid [2]: 7430 units
- beta-galactosidase (lacZ reporter) activity, MUG fluorescence, yeast two-hybrid [3]: 971 units
- beta-galactosidase (lacZ reporter) activity, MUG fluorescence, yeast two-hybrid [4]: 2630 units
- beta-galactosidase (lacZ reporter) activity, MUG fluorescence, yeast two-hybrid [5]: 8620 units
- beta-galactosidase (lacZ reporter) activity, MUG fluorescence, yeast two-hybrid [6]: 997 units

B4: LexA alone (pLexA vector, SHp40) (other)
chain: MKALTARQQEVFDLIRDHISQTGMPPTRAEIAQRLGFRSPNAAEEHLKALARKGVIEIVSGASRGIRLLQEEEEGLPLVGRVAAGEPLLAQQHIEGHYQVDPSLFKPNADFLLRVSGMSMKDIGIMDGDLLAVHKTQDVRNGQVVVARIDDEVTVKRLKKQGNKVELLPENSEFKPIVVDLRQQSFTIEGLAVGVIRNGDWL
- binding result [9]: no binding
